Measurements: the supplement of paper PMC7125110
± gives the standard error. For some assays here: Variants at the floor of the assay were thinned out.

B1: glmS ribozyme (parent)
chain: AUAAAAGCGCCAGAACUACAGAAAUGUAGUUGACGAGGAGGAGGUUUAUCGAAUUUUCGGCGGAUGCCUCCAAA

Tests used:
Details in all cases: with glucosamine-6-phosphate
glucosamine-6-phosphate [1] = variants of: B1; assay: kcat; higher = faster cleavage; RNA array
In short: (§1)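 Glucosamine-6-phosphate in HEPES/KCl/Mg(OAc)2 buffer, at 40 μM to 10 mM, was flowed over barcoded ribozyme variants transcribed in situ by E. coli RNA polymerase on sequenced MiSeq chips. Tracking was through a hybridised Cy3 probe at 37 °C. kobs, kcat and KM came from exponential decay fits and weighted Michaelis–Menten fits of normalised per-tile medians.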

glucosamine-6-phosphate [2] = variants of: B1; assay: self-cleavage kobs at 40 uM GlcN6P; higher = faster cleavage; RNA array
In short: as §1

glucosamine-6-phosphate [3] = variants of: B1; assay: self-cleavage kobs at 160 uM GlcN6P; higher = faster cleavage; RNA array
In short: as §1

glucosamine-6-phosphate [4] = variants of: B1; assay: self-cleavage kobs at 640 uM GlcN6P; higher = faster cleavage; RNA array
In short: as §1

glucosamine-6-phosphate [5] = variants of: B1; assay: self-cleavage kobs at 2500 uM GlcN6P; higher = faster cleavage; RNA array
In short: as §1

glucosamine-6-phosphate [6] = variants of: B1; assay: self-cleavage kobs at 10000 uM GlcN6P; higher = faster cleavage; RNA array
In short: as §1

glucosamine-6-phosphate [7] = variants of: B1; assay: KM; higher = weaker cofactor use; RNA array
In short: as §1

| Variant | kcat (glucosamine-6-phosphate [1]) [s⁻¹] | self-cleavage kobs at 40 uM GlcN6P (glucosamine-6-phosphate [2]) [s⁻¹] | self-cleavage kobs at 160 uM GlcN6P (glucosamine-6-phosphate [3]) [s⁻¹] | self-cleavage kobs at 640 uM GlcN6P (glucosamine-6-phosphate [4]) [s⁻¹] | self-cleavage kobs at 2500 uM GlcN6P (glucosamine-6-phosphate [5]) [s⁻¹] | self-cleavage kobs at 10000 uM GlcN6P (glucosamine-6-phosphate [6]) [s⁻¹] | KM (glucosamine-6-phosphate [7]) [µM] |
| --- | --- | --- | --- | --- | --- | --- | --- |
| G41C C70U | 0.000551 ± 0.00016 | 4.81e-05 ± 7.7e-06 | 9.61e-05 ± 2.4e-05 | 0.000173 ± 2.2e-05 | 0.000498 ± 6.2e-05 | 0.000516 ± 5.8e-05 |  |
| C34A G51C | < 1e-05 | < 1e-05 |  |  |  | < 1e-05 |  |
| U47A A64C | 0.000113 ± 8.6e-06 |  |  | 6.51e-05 ± 1.8e-05 | 7.85e-05 ± 1.3e-05 | 0.000109 ± 1.1e-05 | 720 ± 280 |
| A48C U54C | 0.00042 ± 0.00013 |  |  | 9.71e-05 ± 2.4e-05 | 0.000224 ± 6e-05 | 0.000316 ± 9.5e-05 |  |
| U46G C70A | 0.000224 ± 6.8e-05 | 4.78e-05 ± 1.2e-05 | 4.54e-05 ± 1.6e-05 | 0.000153 ± 2.5e-05 | 0.000395 ± 7.2e-05 | 0.000188 ± 3.1e-05 |  |
| A15U U69G | 5.2e-05 ± 1.9e-05 |  | 4.3e-05 ± 1.3e-05 |  | 6.85e-05 ± 2.1e-05 |  |  |
| A12C U47A G60A | < 1e-05 |  |  |  |  |  |  |
| C16U G41A | 0.00129 ± 0.00064 | 6.97e-05 ± 1.2e-05 | 0.000153 ± 3.2e-05 | 0.000403 ± 7.6e-05 | 0.0011 ± 0.00019 |  |  |
| G44A U45G | 0.00378 ± 0.00039 | 9.22e-05 ± 1.8e-05 | 0.000285 ± 6.4e-05 | 0.000889 ± 0.00016 | 0.00218 ± 0.00031 | 0.0033 ± 0.0007 | 1850 ± 280 |
| G32C C71G | 1.39e-05 ± 7.5e-07 |  |  |  |  |  | 86.6 ± 35 |
| G41A U49G | 3.79e-05 ± 6.4e-06 |  |  |  | 3.9e-05 ± 1e-05 | 3.34e-05 ± 8.6e-06 |  |
| A53C C70U | 0.00487 ± 0.0012 | 0.000105 ± 1.2e-05 | 0.000315 ± 2.6e-05 | 0.000893 ± 0.00013 | 0.00403 ± 0.0007 | 0.00392 ± 0.00044 | 2220 ± 670 |
| U31C C67U | 0.00122 ± 0.00016 | 4.68e-05 ± 7.4e-06 | 0.000125 ± 2e-05 | 0.000375 ± 4.8e-05 | 0.000785 ± 0.00011 | 0.00115 ± 0.00016 | 1290 ± 260 |
| A33U A39C | 1.74e-05 ± 2.5e-06 |  |  |  |  |  | 3650 ± 1600 |
| C50G A53G | 4.4e-05 ± 2.2e-05 |  |  |  | 3.81e-05 ± 1.5e-05 |  |  |
| U57C C67G | 2.59e-05 ± 3.7e-06 | < 1e-05 |  |  | 3.12e-05 ± 1.1e-05 | 2.21e-05 ± 8.5e-06 |  |
| A14C U31G | 0.0249 ± 0.0019 | 0.000384 ± 5.3e-05 | 0.00145 ± 0.00024 | 0.00494 ± 0.00094 | 0.0154 ± 0.0047 | 0.0194 ± 0.0031 | 2550 ± 250 |
